Values joined by “and” are separate entries in the source; they are usually repeats but may differ in a detail not shown here. Equal entries are not always repeated.
Key:
[1] = molecular target: T1, human CD112R on GS-J2C/CD112R effector cells (human, UniProt Q6DKI7 1-326); experiment: cell-based or functional assay
T1 sequence (looked up): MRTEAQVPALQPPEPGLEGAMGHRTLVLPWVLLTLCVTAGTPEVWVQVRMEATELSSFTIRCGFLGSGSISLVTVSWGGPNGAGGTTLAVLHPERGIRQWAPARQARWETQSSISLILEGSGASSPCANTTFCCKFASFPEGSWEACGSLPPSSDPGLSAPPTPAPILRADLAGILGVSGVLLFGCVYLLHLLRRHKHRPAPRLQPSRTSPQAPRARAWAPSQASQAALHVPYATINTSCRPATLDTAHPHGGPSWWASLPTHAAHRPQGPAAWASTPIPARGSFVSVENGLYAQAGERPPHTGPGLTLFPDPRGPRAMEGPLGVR

[2] = molecular target: T2, human CD112R antigen protein huCD112R-His (Acro Biosysterm, PVG-H52H4) (human, UniProt Q6DKI7 41-171); experiment: ELISA, huCD112R-His coated on plate
T2 construct: purchased; also called human antigen protein; not shown: His tag
T2 sequence (looked up): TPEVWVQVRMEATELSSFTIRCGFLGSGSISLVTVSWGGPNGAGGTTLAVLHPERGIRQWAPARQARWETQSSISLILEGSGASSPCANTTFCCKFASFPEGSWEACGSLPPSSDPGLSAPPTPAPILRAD

[3] = molecular target: T3, monkey antigen protein (monkey CD112R, Uniprot ID: A0A2K5WVV8) (monkey, UniProt A0A2K5WVV8 41-171); experiment: ELISA, monkey antigen protein (as Example 6.1)
T3 sequence: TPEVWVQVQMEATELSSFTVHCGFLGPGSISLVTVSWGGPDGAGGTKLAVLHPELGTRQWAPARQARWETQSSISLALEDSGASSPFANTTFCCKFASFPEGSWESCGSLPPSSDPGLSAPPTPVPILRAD

[4] = molecular target: T2, human CD112R antigen protein …; experiment: SPR (Biacore X100), antibody captured on Protein A chip, huCD112R-His as analyte, 1:1 Langmuir
[5] = molecular target: T4, human CD112R on antigen-specific CD8+ T cells (human, UniProt Q6DKI7 1-326); experiment: cell-based or functional assay
T4 sequence (looked up): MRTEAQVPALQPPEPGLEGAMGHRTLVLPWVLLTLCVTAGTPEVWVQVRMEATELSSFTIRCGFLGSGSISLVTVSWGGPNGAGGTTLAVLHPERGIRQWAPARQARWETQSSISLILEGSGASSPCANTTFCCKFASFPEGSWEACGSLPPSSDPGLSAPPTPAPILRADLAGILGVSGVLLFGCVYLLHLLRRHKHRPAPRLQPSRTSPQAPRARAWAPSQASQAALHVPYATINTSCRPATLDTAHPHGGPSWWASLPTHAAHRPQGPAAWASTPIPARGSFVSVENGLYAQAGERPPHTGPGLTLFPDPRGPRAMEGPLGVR

| Binder | EC50 (Blocking effects of the antibodies, reporter gene method) [1] [µg/mL] | EC50 [2] [pM] | EC50 [3] [pM] | Kd [4] | IFN-γ(pg/ml) at 0.5µg/ml antibody [5] [pg/mL] | IFN-γ(pg/ml) at 5µg/ml antibody [5] [pg/mL] | IFN-γ(pg/ml) at 50µg/ml antibody [5] [pg/mL] |
| --- | --- | --- | --- | --- | --- | --- | --- |
| C57 (antibody, human IgG1, kappa, V domains shown) VH: EVQLQQSGPVLVKPGASVKMSCKASGYIFTDYYMHWVKQSHGKSLEWIGIINPYNGDTSYNQKFKDKATLTVDKSSSTAYMELNSLTSEDSAVYYCARDSSNVGNAMDYWGQGTSVTVSS VL: DIQMTQTTSSLSASLGDRVTISCRASQDISNYLNWYLQKPDGTIKLLIYYSSRLHSGVPSRFSGSGSGTDYSLTISNLEQEDIATYFCQQGYTLPRTFGGGTKLEIIR | 0.061 | 34 | 77 | 130 pM and 219 pM | – | – | – |
| C138 (antibody, human IgG1, kappa, V domains shown) VH: EVQLVESGGGLVKPGGSLKLSCAASGFTFSSYAMSWVRQTPAKRLEWVATITSGDIRTYYPDTVKGRFTISRDNAKNTLYLQMRSLRSEDTAMYYCVGHDDFHFYAMDYWGQGTSVTVSS VL: QIVLTQSPAIMSASPGEKVTMTCSASSSVSYLYWYQQKPGSSPRLLIYDTSNLASGVPVRFSGSGSGTSYSLTLSRMEAEDAATYYCQQWSSYPLTFGAGTKLELKR | 0.029 | 39 | 52 | 550 pM | – | – | – |
| C152 (antibody, human IgG1, kappa, V domains shown) VH: QVQLQQSGTILARPGASVKMSCRASDYTFTDYWIQWIKQRPGQGLEWIGAIFPENGDTRYTQKFKGRATLTADKSSSTAYMQVNSLTSEDSAVYYCATFINYVDYWGQGTTLTVSS VL: QIVLIQSPAIMSASPGEKVTMTCSASSSVNNIHWYQQKSGTSPKRWIYDTTKLTSGVPARFSGSGSGTSYSLTISSMEAEDAATYYCQQWNINPYTFGGGTKLEIKR | 0.082 | 82 | 74 | 274 pM | – | – | – |
| anti-CD112R antibody CHA.7.518 (antibody, V domains shown, synthesised according to WO/2016/134333; also called Tab-1; Tab 1) VH: QVQLVQSGAEVKKPGASVKVSCKASGYTFTDYNINWVRQAPGQGLEWMGYIYPYIGGSGYAQKFQGRVTMTRDTSTSTVYMELSSLRSEDTAVYYCAREDKTARNAMDYWGQGTLVTVSS VL: DIQMTQSPSSLSASVGDRVTITCRVSENIYSNLAWYQQKPGKAPKLLIYEATNLAEGVPSRFSGSGSGTDFTLTISSLQPEDFATYYCQHFWGTPYTFGQGTKLEIKR | 0.065 | 34 | – | 346 pM | 696 | 718 | 763 |
| C55 (antibody, human IgG1, kappa, V domains shown) VH: EVQLQQSGPELVKPGASVKISCKASGYTFTDYYMSWVKQSHGKSLEWIGDVNPNNGDTSYNQKFKGKATLTVDKSSSTAYMELRSLTSEDSAVYYCAASGLPYVLMDYWGQGTSVTVSS VL: DIQMTQSPASLSASVGETVTITCRASENINSYLAWYQQKQGKSPQLLVYNTKTLTEDVPSRFSGSGSGTQFSLKINSLQPEDFGSYYCQHHYGTPLTFGGGTKLELKR | 0.052 | 56 | 1290 | 506 pM and 334 pM | – | – | – |
| C62 (antibody, human IgG1, kappa, V domains shown) VH: EVMLVESGGGLVKPGGSLKLSCAASGFSFSSYSMSWVRQTPEKRLECVATIGGVGGNTYYPDSVKGRFSISRDNAKNTLYLQMSSLRSEDTALYYCARHEDYYYYAMDYWGQGTSVTVSS VL: QIVLTQSPAIMSASPGEKVTMTCSANSTVSYIYWYQQKPGSSPRLLIYDTSNLASGVPVRFSGSGSGTSYYLTISRMEAEDAATYYCQQWSSFPFTFGSGTKLEIKR | 0.032 | 32 | 43 | 704 pM and 571 pM | – | – | – |
| C63 (antibody, human IgG1, kappa, V domains shown) VH: EVMLVESGGGLVKPGGSLKLSCAASGFIFSSYIMSWVRQTPEKRLEWVATIRGGGGNTYYLDSVKGRFIISRDNAKNNLYLQMSSLRSEDTALYYCARHEDYEWYAMDNWGQGTSVTVSS VL: QIVLTQSPAIMSASPGEKVTLTCSARSSVSYMYWYQQKPGSSPKLLIYDTSNLASGVPVRFSGSGSGTSYSLTISRMEAEDAATYYCQQWSSYPLTFGAGTKLELKR | 0.023 | 54 | 90 | 488 pM | – | – | – |
